Numbering of substitutions follows the chain as printed.
B1: m1 (site II palindrome mutated) (dsDNA)
DNA 1: AAGAGCGAGCCTCATGACAGGCAACCTTCTTTTAGGAGTCGAGAATTCTAGATATCCCTACTAGCACTTTGAGGAGATGA
DNA 2: TCATCTCCTCAAAGTGCTAGTAGGGATATCTAGAATTCTCGACTCCTAAAAGAAGGTTGCCTGTCATGAGGCTCGCTCTT
B2: m1&2 (sites I and II mutated) (dsDNA)
DNA 1: B1 DNA 1 with T15A, G16C, A17T, C18G
DNA 2: B1 DNA 2 with G63C, T64A, C65G, A66T
B3: m0 (dsDNA)
DNA 1: AAGAGCGAGCCTCATGACAGGCAACCTTCTTTTAGGAGTCGACTTTCAATTGATAGCCTACTAGCACTTTGAGGAGATGA
DNA 2: TCATCTCCTCAAAGTGCTAGTAGGCTATCAATTGAAAGTCGACTCCTAAAAGAAGGTTGCCTGTCATGAGGCTCGCTCTT

Columns and labels:
[1] = target: T1, CalR3 (Streptomyces chartreusis NRRL 3882) (UniProt F8QZR9); test: EMSA; details: EMSA: 20 mM Tris-Cl pH 8.0, 100 mM KCl, 10 mM DTT, 37 C, 30 min, 20 ul, footprinting: 25 C, 500 ng probe in 40 ul
T1 sequence: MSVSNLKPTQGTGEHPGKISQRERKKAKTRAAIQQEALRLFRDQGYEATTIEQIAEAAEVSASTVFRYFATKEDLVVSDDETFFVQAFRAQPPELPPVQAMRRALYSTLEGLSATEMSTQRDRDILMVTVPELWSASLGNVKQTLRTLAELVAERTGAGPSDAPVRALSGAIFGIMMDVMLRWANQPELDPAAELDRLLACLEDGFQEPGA

[2] = target: T2, CalR3 (Streptomyces chartreusis NRRL 3882, UniProt F8QZR9 1-211); test: EMSA; 1.5 uM probe, 0.8 uM CalR3; EMSA: 20 mM Tris-Cl pH 8.0, 100 mM KCl, 10 mM DTT, 37 C, 30 min, 20 ul; footprinting: 25 C, 30 min, 500 ng probe in 40 ul; details: protein: recombinant; tags: N-terminal His6 (pET28a); chain copies: 2
T2 sequence: T1 sequence

[3] = target: T2, CalR3; test: EMSA; 1.5 uM probe, 0.8 uM CalR3; two shifted bands; EMSA: 20 mM Tris-Cl pH 8.0, 100 mM KCl, 10 mM DTT, 37 C, 30 min, 20 ul; footprinting: 25 C, 30 min, 500 ng probe in 40 ul; details: protein: recombinant; tags: N-terminal His6 (pET28a); chain copies: 2

Molecule	binding [1]	binding result [2]	also measured
CCAGCCGGTAAAGAGCGAGCCTCATGACAGGCAACCTTCTTTTAGGAGTCGACTTTCAATTGATAGCCTACTAGCACTTTGAGGAGATGAGAACTCCTCCTCGCTGCCACC (double strand) [T-R3L]	binds		
TCCCTTGCGTCGGTTTCAGGTTGGACACGCTCATGCTCCACATTCTCCAGGCTCTCCGGCGGCCGGCCGGTCACGGCTGTGCCGCGCCCGGCCGCGTGCGGCGGTGGCAGCGAGGAGGAG (double strand) [T-R3R]	no binding		
TGACAGGCAACCTTCTTTTAGGAGTCGACTTTCAATTGATAGCCTACTAGCACTTTGAGGAGATGAGAACTCCTCCTCGCTGCCACCGCCGCACGCGGCCGGGCGCGGCACAGCCGTGACCGGCCGGCCGCCGGAGAGCCTGGAGAATGTGGAGCA (double strand) [T-R3 (calT-calR3 intergenic)]	binds		
B1		no binding	
B2		no binding	
B3			binding result [3]: binds
